This data set in a line: yeast display, Sf9 membrane polyspecificity reagent, FACS + sequencing; frameworks hold sequencing errors. An outline of the steps:
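Synthetic nanobody libraries on Saccharomyces cerevisiae BJ5465 were galactose-induced for 36–48 hours, stained 1 hour at 4 °C with 10% biotinylated, detergent-solubilized Sf9 membrane reagent and enriched on streptavidin microbeads. FACS then separated cells into low and high (top ~1%) gates by anti-HA (expression) and streptavidin (reagent binding) fluorescence. Genes were colony-PCR amplified, MiSeq 2 × 250 sequenced and CDR-length filtered. A clone's polyreactivity label is that of its gate of origin.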
As to “QVQLVESGGVLVQAGASLRLSCAASGFTFGFYGMGWYRQAPGKERELVARITWRSGSTYYADSVKGRFTISRDNAKNTVYLQMNSLKPEDTAVYYCNKVPSYDFLGMDYWGLGTQVTVSS”, the “polyreactivity (PSR sort gate)” value is “low polyreactivity”. The value for “QVQLVESGGGLVQAGGSLRLSCAASGFTFWLYAMGWYRQATGKERELVAAIDWDGGTYYADSVKGRFTISRDNAKNTVYLQMNSLKPEDTAVYYCAARYRYYYTRYDYWGQGTQVTVSS” was “high polyreactivity”; that for “QVQLVESVGGLVQAGGSLRLSCAASGSIFSAYAMGWYRQAPGKERELVASISWSGSSTYADSVKGRFTISRDNAKNTVYLQMNSLKPEDTAVYYCAAGYYSFRSAYDYWGQGTQVTVSS” was “high polyreactivity”.

Regarding “QVQLVESGGGLVQAGGSLRLSCAASGSTFQEYAMGWYRQAPGKERELVASIRWSGGRTYYADSVKGRFTISRDNAKNTVYLQMNSLKPEDTAVYYCNKVWVYAVTPSSWYKYGSWGQGTQVTVSS”, the “polyreactivity (PSR sort gate)” value is listed as “low polyreactivity”.

As for “QVQLVESGGGLVQAGGSLRLSCAASGSTFYPYAMGWYRPAPGKERELVAGITSSGGSTYYADSVKGRFTISRDNAKNTVYLQMISLKPEDTAVYYCNAYIDALPVSYQYDYWGQGTQVTVSS”, the “polyreactivity (PSR sort gate)” value was “low polyreactivity”. With “QVKLVESGRGLVQAGGSLRLSCAASGYKCIVYTMGWYRQAPGKERELVAAISSGGITAYADSVKGRITISRDNAKNTVYLQMNSLKPEYTAVYYWGQGTQVTVSS”, the “polyreactivity (PSR sort gate)” value was “low polyreactivity”. With “QVQLVESGGGLVQAGGSLRLSCAASGLIFRYSGMGWYRQATGKERELVAAIRWSAGSTYYADSVKGRFTISRDNAKNTVYLQMNSLKPEDTAVYYCAARAPVAGYKYRYDYWGQGTQVTVSS”, the “polyreactivity (PSR sort gate)” value is recorded as “high polyreactivity”.

Regarding “QVQLVESGGGLVQAGGILRLSCAASGLTFRDYAMGWYRQAPGKERELVAAISWNGSSTNYADSVKGRFTISRDNAKNTVYLQMNSLKPEDTSVYYCNAYYYYRRPLEGGYWGQGTQVTVSS”, the “polyreactivity (PSR sort gate)” value is “low polyreactivity”. The value for “QVQLVESGGGLVQAGGSLRLSCAASGSTISSNAMGWYRQAPGKERELVAAIDSGGSTYYADSVKGRFTISRDNAKNTVYLQMNSLKPEDTAVYYCNPERETYDTGRAVLPGGYWGQGTQVTVSS” was “low polyreactivity”.

Regarding “QVQLVESGGGLVQAGGSLRLSCAASGYTFVIYAMGSYRQAPGKERELVAAITTIGGRTYYADSVKGRFTISRDNAKNNVYLQMNSLKPEDTAVYYCAADIRSNRLYDGGYWGEGTQVTVSS”, the “polyreactivity (PSR sort gate)” value is on record as “low polyreactivity”. In the case of “QVQLVESGGGLVQAGGSLRLSCAASGRIFGGNVRGWYRQAPGKERELVAGISFSGGSTYYADSVKGRFTISRDNAKNTVYLQMNSLKPEDTAHYYCAASTYQPGALPFDYWGQGTQVTVSS”, the “polyreactivity (PSR sort gate)” value is “low polyreactivity”. As to “QVQLVESGGGLVQAGGSLRLSCAASGRTFAWYAMGWYRQAPGKERELVAAISSGGSTYYADSVKGRFTISRDNAKKTVYLQMNSLKPDDTAVYYCAAEWHYIYAYDYWRQGTQVTVSS”, the “polyreactivity (PSR sort gate)” value is “low polyreactivity”. Consider “QVQLVESGGGLVQAGGTLRLSCAPSGHIVFYYTKGWYRQAPGKERELVAGITIGGSTNYADSVKGRFTISRDNAKNTVYLQMNSLKPEDTAVYYCNVVKYVYIYSYWEYYYWGQGTQVTGSS”, for which the “polyreactivity (PSR sort gate)” value is on record as “low polyreactivity”. The same measure for “QVQLVESGGGLVQAGGSLRLSCAASGSTFTGNAMGWYRQAPGKERELVASIRRIGSPYYADSVKGRFTISRDNAKNTVDLQMISLKPEDTAVFYCAAAVKIRTPYQYGYWGQGTQVTVSS”: “high polyreactivity”; for “QVQLVESGGGLVQAGGSLRLTCAASGSTFSRYVIGWYRQEPGKERELVAAISRSGSTYYADSVKGRFTISRDNAKNTVYLQMNSLKPEDTAVYYCAASGSKSAGYGYWGQGTQVTVSS”: “high polyreactivity”; for “QVHLVDSGGGLVQAGGSLRLSCAASGFTFDYYAMGWYRQAPGKERELVAAITSDGSTYYADSVKGRFTISRDNAKNTVYLQMNSLKPEDTAVYYCAADGISLYATAYDYWGQGTQVTVSS”: “low polyreactivity”. Consider “QVQLVESGGGLVQAGGSLRLSCAPSGLILDGNVMGWYRQAPGTERELVAAINTSGGSTYYADSVKGRFTISRDNAKNTVYLQMNSLKPEDTAVYYCAARYPTDYDYWGQGTQVTVSS”, for which the “polyreactivity (PSR sort gate)” value is listed as “low polyreactivity”.

Consider “QVQLVESGGGLVQAGGSLRLSCAASGFILDYYDMGWYRQAPGKERELVAGINYGGDSTYYADSVKGRFTISRDNAKNTVYLQMNSLKPEDTAVYYCAADLYFQYPEYDYWGQGTQVTVSS”, for which the “polyreactivity (PSR sort gate)” value was “low polyreactivity”. As to “QVQLVESVGGLVQAGGSLRLSCAASGGTFGYNAMGWYRQAPGKERELVAAIRVNGGSTYYADSVKGRFTISRDNAKNTVYLQMNSLKPEDTAVYYCAAESRVYRTSYWYGYWGQGTQVTVSS”, the “polyreactivity (PSR sort gate)” value is “high polyreactivity”. The value for “QVQLVESGGGLVQAGGSLRLTCAASGLTFDSNVMGWYRQAPGKERELVAAITASGGRTYYADSVKGRFTISRDNAKNTVYLQMNSLKPEDTAVYYCAADSRSAYDYWGQGSQVTVSS” was “high polyreactivity”; that for “QVQLVESGGGLVQAGGSLRLSCAASGSTFTTYAMGWYRQAPGKERELVAVITDSRGTYYADSVKGRFTISRDNAKNTVYLQMHSLKPEDTALYYCNRVFPPTDYEFDSWGQGTQVTVSS” was “low polyreactivity”. In the case of “QVQLVESGGGLVQAGGSLRLSCAASGNTFYRNAMGWSRQAPGKERELVAAIDYSAGSTYYADSVKGRFTISRDNAKNTVYLQMNSLKPEDTAVYYCAADARTSRGRRYYYWGQGTQVTVSS”, the “polyreactivity (PSR sort gate)” value is recorded as “low polyreactivity”. In the case of “QVQHVESGGGLVQAGGSLRLSCAASGRIFGRNNMGWYRQAPGKERELVAAISSSGGSTRYADSVKGRFTISRDNAKNTVYLQMNSLKPEDTGVYYCAARRAYYYEGGYDYWGQGTQVTVSS”, the “polyreactivity (PSR sort gate)” value is recorded as “high polyreactivity”. Take “QVQLVESGGGLVQAGGSLRLSCAASGRIFPDYVMGWYRQAPGKEREFVAIISYSGVRTYYADSVKGRFTISRDNAKNTVYLQMNSLKPEDTAVYYCAADFKQKGHRTRTTYWGQGTQVTVSS”: the “polyreactivity (PSR sort gate)” value is given as “high polyreactivity”. “QVQLVESGGGLVQAGGSLRLSCAASGIIFDRYAMGWYRQAPGKEREFVAAISRRGGSTYYADSVKGRFTISRDNAKNTVYLQMNSLKPEDTAVYYCAKEIRYYSSVSESDYWGQGTQVTVSS”: the “polyreactivity (PSR sort gate)” value is listed as “high polyreactivity”. Turning to “QVQLVESGGGLVQAGGSLRLSCAASGRTLRYNVMGLYRQAPGKERELVAVIDRSGVSTYYADSVKGRFTISRDNAKNTVYLQMNSLKPEDTAVYYCAAPRVVYRGDYWGQGTQVTVSW”, the “polyreactivity (PSR sort gate)” value was “high polyreactivity”. With “QVQLVESGRGLVQAGGSLRLSCAASGGIFTDYTMGWYRQAPGKERELVAAITWTGGSTYYADSVKGRFTISRDNAKNTFYLQMNSLKPEDSAVYYCAADDYWVNLVYWGQGTQVTVSS”, the “polyreactivity (PSR sort gate)” value is recorded as “low polyreactivity”.

Turning to “QVQLVESGGGIVQAGGSLRVSCAASGRTFWGYAMGWYRQAPGKERELVAALNKSGGSTYYADSVKGRFTISRDNAKNTVYLQKNSLNPEDTAVYYCIAVYYWYKGDYWGQGTQVTVSS”, the “polyreactivity (PSR sort gate)” value is given as “high polyreactivity”.

Consider “QVQLVESGGGLVQAGGSLRLSCAASGRIFKYYAMGWYRQAPGKERELVAAISARGGSTYYADSVKGRFTISRDNAKNTVYFQMNSLKPEDTAVYYCAAPYLTTQYERMYYWGQGTQVTVSS”, for which the “polyreactivity (PSR sort gate)” value is “high polyreactivity”. For the sequence “QVQLVESGGGLVQAGGSLRLSCASSGFIFASYAMGWYRQAPGKERELVAAISYRGGTTYYADSVKGRFTISRDNAKNTVYLQMNSLKPEDTAVYYCAADSPENRYNYWGQGTQVTVSS”, the “polyreactivity (PSR sort gate)” value is on record as “high polyreactivity”. Regarding “QVQLVESGGGLVQAGGSLRLSCAASGSTFSIYAMGWYRQAPGKERELVAAITRRSGSTYYADSVKGRITISRDNAKNTVSLQMKSLKPEDTAVYYCAADTWRTDYTSSYYKNRDSWGQGTQVTVSS”, the “polyreactivity (PSR sort gate)” value is reported as “high polyreactivity”.

For “QVQLVESVGGLDQAGGSLPLSCAASGSTLAVYDMGWSRQAPGKESELVAAISTTGGRTYYADSVKGRFTISRDNSKNTVYLQMNRLKPEDTAVYYCNADAEDVIYYEYDYCGQGTQVTVSS”, the “polyreactivity (PSR sort gate)” value is reported as “low polyreactivity”. On to “QVQLVESGGRLVQAGGSLRLSCAASGSIFYGYTMGWYRQAPGKERELVATISGRGGSTYYADSVKGRFTISRDNAKTTVYLQMNSLKPEDTAVYYCNSGKYYYNYGFWGQGTQVTVSS”, for which the “polyreactivity (PSR sort gate)” value was “high polyreactivity”. Take “QVQLVESGGGLVQAGGSLRLSCAASGRTFSSNAMGWYRQAPGKERELVATITYSGGSTYYADSVKGRFTISRDNAKNTVYLQMNSLKPEDTAVYYCAVRVSTYITKYYYWGQGTQVTVSS”: the “polyreactivity (PSR sort gate)” value is “low polyreactivity”.

For the sequence “QVQLVESGGGLVQAGGSLSLSCAASGSTFKHYAMGWYRKAPGKERELVAAISSRGGSTHYADSVKGRFTISRDNAKNTVYLQMNSLKPEDTAVYYCARDTDPQSSRSSDYDYWGQGTQVTVSS”, the “polyreactivity (PSR sort gate)” value was “low polyreactivity”. The same measure for “QVQLVESGGGLVQAGGSLRLSCAASGSIFVHNAMGWYRQAPGKERELVAAITWSGGSTYYADSVKGRFTISRDNAKNTVYLQMNSLKPEDTAVYYCAAEDVAAQWAYESPTSYWYYYIYEYWGQGTQVTVSS”: “low polyreactivity”; for “QVQLVETGGCLVQAGGSLRLSCAASGFTFRGYAMGWYRQAPGKERELVAAITAGGGSTSYADSVKGRFTISRDNAKNTVYLLMNSLKPEDTAVYYCAKDRYYGYFRSRSDYWGQGTQVTVSS”: “high polyreactivity”; for “QVQLVESGGGLVQAGGSLRLSCAASGLIFNTYAMGWYRQARGKERELVAAITDGGGTNYADSVKGRFTISRDNAKNTVYLQMNSLKPEDTAVYYCAARLASWPLTYDFQWYEYWGQGTQVTVSS”: “low polyreactivity”. Take “QVQLVESGGGLVQAGGRLRLSCAASGSTFATYTMGWYRQPPGKERELVAAISVSGSRTYYADSVKGRFSISRDNAKNTVYLQMNSLKPEDTAVYYCAAANHKGSRMDYWGPGTQVTVSS”: the “polyreactivity (PSR sort gate)” value is “high polyreactivity”. “HVQLQESGGGLVQAGGSLRLSCAASGNISYSRNMGWYRQAPGKERELVAAIDRGAITYYADSVKGRFTISRDNAKNTVYLQIYSLKPEDTAVYYCAAEYHDRGDHRYWGQGTQVTVSS”: the “polyreactivity (PSR sort gate)” value is given as “high polyreactivity”. Take “QVQLVESGGGVVQAGGSLRLSCAASGRIFDLYAMGWYRQAPGKERELVATISGSGGSTYYADSVKGRFTISRDNAKNTVYLQMNSLKPEDTAVYYCAAVSVSSWYDYWGQGTQVTVSS”: the “polyreactivity (PSR sort gate)” value was “low polyreactivity”.
